Ends that are not written are not given here.
How the values were obtained:
[1] = molecular target: T1, thrombin receptor (Homo sapiens, UniProt P25116); test: flow cytometry of thrombin receptor epitopes (SPAN12, ATAP138) on α-thrombin activated platelets; format: cell-based; settings: peptide 1 nM (so in the source), α-thrombin 1 nM
T1 construct: endogenous in cells; host or cells: washed platelets from fresh blood
T1 sequence (P25116 22-425): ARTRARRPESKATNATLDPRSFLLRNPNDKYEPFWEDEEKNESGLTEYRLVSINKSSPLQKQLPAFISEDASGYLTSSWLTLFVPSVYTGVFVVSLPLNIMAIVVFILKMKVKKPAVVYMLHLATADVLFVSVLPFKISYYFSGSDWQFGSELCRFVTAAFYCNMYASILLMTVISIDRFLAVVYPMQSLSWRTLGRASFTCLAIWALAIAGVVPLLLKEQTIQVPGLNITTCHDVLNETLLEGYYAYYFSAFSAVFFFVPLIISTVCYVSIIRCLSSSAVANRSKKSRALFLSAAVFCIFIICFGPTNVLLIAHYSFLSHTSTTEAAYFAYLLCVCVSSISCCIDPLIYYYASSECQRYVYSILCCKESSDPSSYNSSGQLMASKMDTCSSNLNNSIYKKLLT
Procedure: Flow cytometry studies were performed to determine whether BK analogs prevent α-thrombin from eliminating an epitope on the thrombin receptor which is lost following α-thrombin cleavage- of the receptor. SPAN12 is an antibody to the thrombin receptor on platelets, which is specific for such an epitope. Studies were also performed to determine the effect of BK analogs on an epitope recognized by monoclonal antibody ATAP 138. The antibody is directed to an epitope on the thrombin receptor which is preserved after α-thrombin cleaves the receptor (FIGS. 7A-7D).
Monoclonal antibody SPAN12 was reared to the 12 amino acids, Asn-Ala-Thr-Leu-Asp-Pro-Arg-Ser-Phe-Leu-Leu-Arg (SEQ ID NO:2), that bridge the α-thrombin cleavage site on the thrombin receptor by the methods of Molinot et al., J. Biol. Chem. 270:ln Press, 1995. […]
Mouse IgG and an antibody to the epitope CD62 were used as controls. […] The fluorescence of bound FITC-anti-IgG to platelets was monitored on an Epics-C flow cytometer (Coulter Electronics, Hialeah, Fla.). Light scatter and fluorescence channels were set at logarithmic gain. […] Green fluorescence was observed through a 525 nm band pass filter. The relative fluorescence intensity of at least 15,000 platelets was analyzed in each sample. […]

[2] = tested on: Human platelets in PRP; test: γ-thrombin-induced aggregation of human platelets in PRP in vitro; format: cell-based; settings: 20 nM γ-thrombin
Procedure: Platelet aggregation studies on the PRP were conducted on a 4-channel aggregometer (BioData-PAP-4, Bio Data Corp., Hatboro, Pa.). The degree of platelet aggregation was determined by measuring the increase in light transmission through a stirred suspension of PRP maintained at 37° C. Platelet aggregation was induced in the PRP sample by addition of 20 μM ADP and γ-thrombin according to the method of Harfenist et al., Thromb. Haemost. 53, 183 (1985). […] Like human platelets, rabbit platelets display a variable response to γ-thrombin. Each rabbit's platelets were evaluated before BK analog infusion for their threshold response to γ-thrombin. The rabbit platelets used in this experiment were responsive to 10 nM to 40 nM γ-thrombin. Simultaneous γ-thrombin-induced platelet aggregation studies were performed with 10, 20, and 40 nM γ-thrombin and 20 μM ADP.
The protocol for the human platelet study was identical to that for the functional study with white rabbits described above in Section III.A, with the following differences.
Blood samples were obtained from normal human volunteers. Platelet counts were measured with a Coulter counter, Model 2F (Coulter, Hialeah, Fla.,) and adjusted to a platelet count of 200,000 platelets/μl. Each individual's platelets at baseline were measured for their threshold response to γ-thrombin. Typical threshold levels were between 10 nM to 40 nM.

[3] = molecular target: α-thrombin (Homo sapiens, UniProt P00734); test: α-thrombin cleavage of thrombin receptor peptide NAT12 (HPLC); format: biochemical; settings: peptide 1 mM
Procedure: A further study was performed to determine whether BK analogs prevent α-thrombin from cleaving the thrombin receptor reported by Vu et al., Cell 64, 1057 (1991). A peptide, NAT12 (SEQ ID NO:2), which spans amino acids […] of the α-thrombin cleavage site on the thrombin receptor, was used to determine whether the BK analogs described herein blocked α-thrombin cleavage of the cloned receptor.
The cleavage study was performed according to the method of Molino et al., J. Biol. Chem. 270,11168(1995),inwhichNAT12(SEQ ID NO:2) was dissolved in a solution of 0.01 M NaH2 PO4 and 0.15 M NaCl, pH 7.4. […] Following incubation, each mixture was separated by applying the mixture to a Vyadec C-18 HPLC column in 0.1% trifluoroacetic acid and eluting the mixture with a gradient from 0% to 100% of 80% MeCN and 0.1% trifluoroacetic acid. The size of the separated products were confirmed by mass spectrometry.

In the case of “SEQ ID NO:4: unrelated peptide having an amino acid content similar to BK analog SEQ ID NO:14 (FNQTQPERGDNNLTR)”, the “alteration of SPAN12 epitope by α-thrombin” value [1] is reported as “did not prevent”.
For “SEQ ID NO:21: non-BK analog peptide derived from domain 3 of kininogen (LNAENNA) [reference compound]”, the “effect on γ-thrombin-induced aggregation tracing” value ([2]; peptide 1 mM) was “unable to alter”, the “protection of NAT12 / thrombin receptor from α-thrombin cleavage” value [3] was “no protection” and the “cleavage product peak 2, share of non-treated NAT12 peak area” value ([3]; 8 nM α-thrombin) was 32%. For the same substance, the “cleavage product peak 3, share of non-treated NAT12 peak area” value ([3]; 8 nM α-thrombin) was 54% and the “reduction of NAT12 peak 1 area after α-thrombin” value ([3]; 8 nM α-thrombin, one hour 37° C.) was 86%.
In the case of “4-MAP: four-branch multiple antigenic peptide of BK analog SEQ ID NO:20 on a lysine-β-alanine core (RPPG; also: four-branch MAP on lysine-beta-alanine core)”, the “effect on γ-thrombin-induced aggregation tracing” value ([2]; 0.05 mM) is reported as “abolished”.

From patent publication US6143719A, “Bradykinin analogs as selective thrombin inhibitors” (The Regents of the University of Michigan, priority 1996, dated 2000)
